Source: the Human Domainome abundance scans (Beltran et al. 2025)
± gives the uncertainty stated by the source.

B1: RNA-binding E3 ubiquitin-protein ligase MEX3C, residues 325 to 391; numbered along this chain, Q5U5Q3 (parent)
chain: GQTTVQVRVPYRVVGLVVGPKGATIKRIQQQTHTYIVTPSRDKEPVFEVTGMPENVDRAREEIEMHI

Variants of: B1
Assay: abundance fitness (aPCA) (normalised: wild type 0, dead -1); higher = more abundant; growth selection in yeast, the domain comes from the species named
Settings: Homo sapiens

| Variant | abundance fitness |
| --- | --- |
| GQTAVQVRVPYRVVGLVVGPKGATIKRIQQQTHTYIVTPSRDKEPVFEVTGMPENVDRAREEIEMHI [T4A] | -0.523 ± 0.12 |
| GQTNVQVRVPYRVVGLVVGPKGATIKRIQQQTHTYIVTPSRDKEPVFEVTGMPENVDRAREEIEMHI [T4N] | -0.812 ± 0.22 |
| GQTKVQVRVPYRVVGLVVGPKGATIKRIQQQTHTYIVTPSRDKEPVFEVTGMPENVDRAREEIEMHI [T4K] | -0.414 ± 0.072 |
| GQTVVQVRVPYRVVGLVVGPKGATIKRIQQQTHTYIVTPSRDKEPVFEVTGMPENVDRAREEIEMHI [T4V] | -0.477 ± 0.082 |
| GQTDVQVRVPYRVVGLVVGPKGATIKRIQQQTHTYIVTPSRDKEPVFEVTGMPENVDRAREEIEMHI [T4D] | -0.631 ± 0.14 |
| GQTTSQVRVPYRVVGLVVGPKGATIKRIQQQTHTYIVTPSRDKEPVFEVTGMPENVDRAREEIEMHI [V5S] | -0.74 ± 0.13 |
| GQTTQQVRVPYRVVGLVVGPKGATIKRIQQQTHTYIVTPSRDKEPVFEVTGMPENVDRAREEIEMHI [V5Q] | -0.294 ± 0.092 |
| GQTTTQVRVPYRVVGLVVGPKGATIKRIQQQTHTYIVTPSRDKEPVFEVTGMPENVDRAREEIEMHI [V5T] | -0.478 ± 0.15 |
| GQTTEQVRVPYRVVGLVVGPKGATIKRIQQQTHTYIVTPSRDKEPVFEVTGMPENVDRAREEIEMHI [V5E] | -0.667 ± 0.14 |
| GQTTCQVRVPYRVVGLVVGPKGATIKRIQQQTHTYIVTPSRDKEPVFEVTGMPENVDRAREEIEMHI [V5C] | -0.475 ± 0.11 |
| GQTTLQVRVPYRVVGLVVGPKGATIKRIQQQTHTYIVTPSRDKEPVFEVTGMPENVDRAREEIEMHI [V5L] | -0.016 ± 0.079 |
| GQTTRQVRVPYRVVGLVVGPKGATIKRIQQQTHTYIVTPSRDKEPVFEVTGMPENVDRAREEIEMHI [V5R] | -0.336 ± 0.062 |
| GQTTGQVRVPYRVVGLVVGPKGATIKRIQQQTHTYIVTPSRDKEPVFEVTGMPENVDRAREEIEMHI [V5G] | -0.387 ± 0.053 |
| GQTTHQVRVPYRVVGLVVGPKGATIKRIQQQTHTYIVTPSRDKEPVFEVTGMPENVDRAREEIEMHI [V5H] | -0.822 ± 0.2 |
| GQTTFQVRVPYRVVGLVVGPKGATIKRIQQQTHTYIVTPSRDKEPVFEVTGMPENVDRAREEIEMHI [V5F] | -0.363 ± 0.12 |
| GQTTMQVRVPYRVVGLVVGPKGATIKRIQQQTHTYIVTPSRDKEPVFEVTGMPENVDRAREEIEMHI [V5M] | -0.452 ± 0.21 |
| GQTTIQVRVPYRVVGLVVGPKGATIKRIQQQTHTYIVTPSRDKEPVFEVTGMPENVDRAREEIEMHI [V5I] | 0.2 ± 0.054 |
| GQTTAQVRVPYRVVGLVVGPKGATIKRIQQQTHTYIVTPSRDKEPVFEVTGMPENVDRAREEIEMHI [V5A] | -0.34 ± 0.066 |
| GQTTKQVRVPYRVVGLVVGPKGATIKRIQQQTHTYIVTPSRDKEPVFEVTGMPENVDRAREEIEMHI [V5K] | -0.18 ± 0.13 |
| GQTTDQVRVPYRVVGLVVGPKGATIKRIQQQTHTYIVTPSRDKEPVFEVTGMPENVDRAREEIEMHI [V5D] | -1.05 ± 0.41 |
| GQTTWQVRVPYRVVGLVVGPKGATIKRIQQQTHTYIVTPSRDKEPVFEVTGMPENVDRAREEIEMHI [V5W] | -0.83 ± 0.19 |

| Variant | abundance fitness |
| --- | --- |
| VQTTVQVRVPYRVVGLVVGPKGATIKRIQQQTHTYIVTPSRDKEPVFEVTGMPENVDRAREEIEMHI [G1V] | -0.283 ± 0.3 |
| AQTTVQVRVPYRVVGLVVGPKGATIKRIQQQTHTYIVTPSRDKEPVFEVTGMPENVDRAREEIEMHI [G1A] | -0.27 ± 0.44 |
| SQTTVQVRVPYRVVGLVVGPKGATIKRIQQQTHTYIVTPSRDKEPVFEVTGMPENVDRAREEIEMHI [G1S] | -0.094 ± 0.085 |
| RQTTVQVRVPYRVVGLVVGPKGATIKRIQQQTHTYIVTPSRDKEPVFEVTGMPENVDRAREEIEMHI [G1R] | -0.022 ± 0.31 |
| DQTTVQVRVPYRVVGLVVGPKGATIKRIQQQTHTYIVTPSRDKEPVFEVTGMPENVDRAREEIEMHI [G1D] | -0.136 ± 0.066 |
| GQYTVQVRVPYRVVGLVVGPKGATIKRIQQQTHTYIVTPSRDKEPVFEVTGMPENVDRAREEIEMHI [T3Y] | -0.296 ± 0.18 |
| GQVTVQVRVPYRVVGLVVGPKGATIKRIQQQTHTYIVTPSRDKEPVFEVTGMPENVDRAREEIEMHI [T3V] | 0.008 ± 0.052 |
| GQNTVQVRVPYRVVGLVVGPKGATIKRIQQQTHTYIVTPSRDKEPVFEVTGMPENVDRAREEIEMHI [T3N] | -0.672 ± 0.16 |
| GQHTVQVRVPYRVVGLVVGPKGATIKRIQQQTHTYIVTPSRDKEPVFEVTGMPENVDRAREEIEMHI [T3H] | -0.252 ± 0.11 |
| GQETVQVRVPYRVVGLVVGPKGATIKRIQQQTHTYIVTPSRDKEPVFEVTGMPENVDRAREEIEMHI [T3E] | -0.385 ± 0.079 |
| GQMTVQVRVPYRVVGLVVGPKGATIKRIQQQTHTYIVTPSRDKEPVFEVTGMPENVDRAREEIEMHI [T3M] | -0.556 ± 0.097 |
| GQQTVQVRVPYRVVGLVVGPKGATIKRIQQQTHTYIVTPSRDKEPVFEVTGMPENVDRAREEIEMHI [T3Q] | -0.258 ± 0.1 |
| GQLTVQVRVPYRVVGLVVGPKGATIKRIQQQTHTYIVTPSRDKEPVFEVTGMPENVDRAREEIEMHI [T3L] | -0.163 ± 0.06 |
| GQSTVQVRVPYRVVGLVVGPKGATIKRIQQQTHTYIVTPSRDKEPVFEVTGMPENVDRAREEIEMHI [T3S] | -0.309 ± 0.066 |
| GQPTVQVRVPYRVVGLVVGPKGATIKRIQQQTHTYIVTPSRDKEPVFEVTGMPENVDRAREEIEMHI [T3P] | -0.787 ± 0.24 |
| GQWTVQVRVPYRVVGLVVGPKGATIKRIQQQTHTYIVTPSRDKEPVFEVTGMPENVDRAREEIEMHI [T3W] | -1.1 ± 0.23 |
| GQGTVQVRVPYRVVGLVVGPKGATIKRIQQQTHTYIVTPSRDKEPVFEVTGMPENVDRAREEIEMHI [T3G] | -0.519 ± 0.065 |
| GQDTVQVRVPYRVVGLVVGPKGATIKRIQQQTHTYIVTPSRDKEPVFEVTGMPENVDRAREEIEMHI [T3D] | -0.45 ± 0.1 |
| GQITVQVRVPYRVVGLVVGPKGATIKRIQQQTHTYIVTPSRDKEPVFEVTGMPENVDRAREEIEMHI [T3I] | 0.306 ± 0.094 |
| GQATVQVRVPYRVVGLVVGPKGATIKRIQQQTHTYIVTPSRDKEPVFEVTGMPENVDRAREEIEMHI [T3A] | -0.799 ± 0.11 |
| GQCTVQVRVPYRVVGLVVGPKGATIKRIQQQTHTYIVTPSRDKEPVFEVTGMPENVDRAREEIEMHI [T3C] | -0.256 ± 0.11 |
